Assay results published in IntAct's records for PubMed 22139357.

B1: Protein phosphatase 2C homolog 4 (Schizosaccharomyces pombe (strain ATCC 38366 / 972)), O14156 (parent)
chain: MSIRFLKRLRAPLYIQNAYCSKNYFYRSFIQYYSPSNGPYLKISMNKAPQSLGLCTARGDSPTNQDRMAYGYLNNLKDTTNRDSPFFYGLFDGHGGTECSEFLSTNLGKIIENQDLNDTEKILKEVHSVGGYMAGLKPPFSLRTVLQSRDEDLLWRARLYYSFLQADMDYLTNYARPSPDSAVPGAVGTVAIITSKNNLSYWESDSYIIHLAHVGDTRALLCDSRTGRAHRLTFQHHPADVEEARRLRRYNMGFSRDSFGQKRFAWVANTRSFGDGYKLKKLGVVAEPQLTSIHSLRDDWSFLTLLSDGITDVVSDDEVVDIIKLSESPQDAANNIIRYAQNVGAVDDITCLVVRLPGWKKRTINDFTKNLRLEKSAYHPRRS
partner: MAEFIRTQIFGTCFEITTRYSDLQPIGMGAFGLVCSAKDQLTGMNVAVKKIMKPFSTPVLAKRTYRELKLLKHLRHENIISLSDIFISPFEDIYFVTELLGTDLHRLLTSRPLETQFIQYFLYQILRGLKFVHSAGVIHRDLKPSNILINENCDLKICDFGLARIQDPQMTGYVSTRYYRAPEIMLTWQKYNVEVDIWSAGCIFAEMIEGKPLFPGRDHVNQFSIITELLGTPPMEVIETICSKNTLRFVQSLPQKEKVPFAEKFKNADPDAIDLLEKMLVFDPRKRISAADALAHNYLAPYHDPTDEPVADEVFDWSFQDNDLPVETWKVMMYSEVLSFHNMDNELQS

Tests used:
Conditions in all cases: with hog1_schpo sty1, Q09892
[1] = variants of: B1
[2] = variants of: B1; remark: listed apart in the source
[3] = variants of: B1; remark: listed apart in the source

With R10A the “effect of a mutation on the interaction” value [1] was “disrupting interaction” and the “effect of a mutation on the interaction” value [2] was “decreasing interaction”.

For R27A, the “effect of a mutation on the interaction” value [1] was “disrupting interaction” and the “effect of a mutation on the interaction” value [3] was “decreasing interaction”.

With R8A the “effect of a mutation on the interaction” value [1] was “disrupting interaction” and the “effect of a mutation on the interaction” value [2] was “decreasing interaction”.
